Substrate in this series: CN(CC(=O)O)C(=O)CN
The experiment in a line: cells, lysate or membranes. Format: cell-based, Homo sapiens.

In paper PMC2428106, “Regulation of intestinal hPepT1 (SLC15A1) activity by phosphodiesterase inhibitors is via inhibition of NHE3 (SLC9A3)” (Biochimica et Biophysica Acta, 2007) one finds Km data, which are given here for one protein.

B1: hPepT1 (SLC15A1) (Homo sapiens) (protein)
chain: MGMSKSHSFFGYPLSIFFIVVNEFCERFSYYGMRAILILYFTNFISWDDNLSTAIYHTFVALCYLTPILGALIADSWLGKFKTIVSLSIVYTIGQAVTSVSSINDLTDHNHDGTPDSLPVHVVLSLIGLALIALGTGGIKPCVSAFGGDQFEEGQEKQRNRFFSIFYLAINAGSLLSTIITPMLRVQQCGIHSKQACYPLAFGVPAALMAVALIVFVLGSGMYKKFKPQGNIMGKVAKCIGFAIKNRFRHRSKAFPKREHWLDWAKEKYDERLISQIKMVTRVMFLYIPLPMFWALFDQQGSRWTLQATTMSGKIGALEIQPDQMQTVNAILIVIMVPIFDAVLYPLIAKCGFNFTSLKKMAVGMVLASMAFVVAAIVQVEIDKTLPVFPKGNEVQIKVLNIGNNTMNISLPGEMVTLGPMSQTNAFMTFDVNKLTRINISSPGSPVTAVTDDFKQGQRHTLLVWAPNHYQVVKDGLNQKPEKGENGIRFVNTFNELITITMSGKVYANISSYNASTYQFFPSGIKGFTISSTEIPPQCQPNFNTFYLEFGSAYTYIVQRKNDSCPEVKVFEDISANTVNMALQIPQYFLLTCGEVVFSVTGLEFSYSQAPSNMKSVLQAGWLLTVAVGNIIVLIVAGAGQFSKQWAEYILFAALLLVVCVIFAIMARFYTYINPAEIEAQFDEDEKKNRLEKSNPYFMSGANSQKQM
By Km is commonly meant the substrate concentration at which the rate is half of its maximum. Consider B1, for which the Km came to 1000 ± 200 µM.
